B1: Mutant of the C-terminal part and the histidine tag, SEQ ID NO: 18 (C-terminal part removed, histidine tag modified) (other)
chain: MHHHHHHGAMARKELSSLEELFRHYGVRYMTLTKMVEMGFTVNTLVNMTEQELDDVIRTLVDIYRVDLLVGEKYGIKSAVRAEKRR
B2: Mutant with a self-reducing sequence at the C-terminal part, SEQ ID NO: 29 (C-terminal part and histidine tag modified) (other)
chain: MKHHHHHHPGAMARKELSSLEELFRHYGVRYMTLTKMVEMGFTVNTLVNMTEQELDDVIRTLVDIYRVDLLVGEKYGIKSAVRAEKRRLDELERKKGGSTGTSVLIATPGV
B3: Mutant of the C-terminal part and histidine tag, SEQ ID NO: 26 (other)
chain: MHHHHHHGAMARKELSSLEELFRHYGVRYMTLTKMVEMGFTVNTLVNMTEQELDDVIRTLVDIYRVDLLVGEKYGIKSAVRAEKRRLDELERKKGGSC
B4: Mutant of the C-terminal part and histidine tag, SEQ ID NO: 27 (other)
chain: MHHHHHHGAMARKELSSLEELFRHYGVRYMTLTKMVEMGFTVNTLVNMTEQELDDVIRTLVDIYRVDLLVGEKYGIKSAVRAEKRRLDELERKKGGSHHHHHH
B5: Mutant with a self-reducing sequence at the C-terminal part, SEQ ID NO: 31 (C-terminal part and histidine tag modified) (other)
chain: MKHHHHHHPGAMARKELSSLEELFRHYGVRYMTLTKMVEMGFTVNTLVNMTEQELDDVIRTLVDIYRVDLLVGEKYGIKSAVRAEKRRLDELERKKGGSWAGAKRLVLRRE

Biological target: the molecule itself
Experiment: self-assembly (homo-oligomerisation) by crystallisation on a substrate

Binding result, binds:
B1
B2
B3
B4
B5

Reference: patent publication US20220380486A1 (COMMISSARIAT A L ENERGIE ATOMIQUE ET AUX ENERGIES …, published 2022)
